Data on one molecule can be found in article PMC8163762, “Impact of DNA methylation on 3D genome structure”.

This data set deals with T1, Ume6p (Saccharomyces cerevisiae, UniProt P39001 1-836).
T1 sequence: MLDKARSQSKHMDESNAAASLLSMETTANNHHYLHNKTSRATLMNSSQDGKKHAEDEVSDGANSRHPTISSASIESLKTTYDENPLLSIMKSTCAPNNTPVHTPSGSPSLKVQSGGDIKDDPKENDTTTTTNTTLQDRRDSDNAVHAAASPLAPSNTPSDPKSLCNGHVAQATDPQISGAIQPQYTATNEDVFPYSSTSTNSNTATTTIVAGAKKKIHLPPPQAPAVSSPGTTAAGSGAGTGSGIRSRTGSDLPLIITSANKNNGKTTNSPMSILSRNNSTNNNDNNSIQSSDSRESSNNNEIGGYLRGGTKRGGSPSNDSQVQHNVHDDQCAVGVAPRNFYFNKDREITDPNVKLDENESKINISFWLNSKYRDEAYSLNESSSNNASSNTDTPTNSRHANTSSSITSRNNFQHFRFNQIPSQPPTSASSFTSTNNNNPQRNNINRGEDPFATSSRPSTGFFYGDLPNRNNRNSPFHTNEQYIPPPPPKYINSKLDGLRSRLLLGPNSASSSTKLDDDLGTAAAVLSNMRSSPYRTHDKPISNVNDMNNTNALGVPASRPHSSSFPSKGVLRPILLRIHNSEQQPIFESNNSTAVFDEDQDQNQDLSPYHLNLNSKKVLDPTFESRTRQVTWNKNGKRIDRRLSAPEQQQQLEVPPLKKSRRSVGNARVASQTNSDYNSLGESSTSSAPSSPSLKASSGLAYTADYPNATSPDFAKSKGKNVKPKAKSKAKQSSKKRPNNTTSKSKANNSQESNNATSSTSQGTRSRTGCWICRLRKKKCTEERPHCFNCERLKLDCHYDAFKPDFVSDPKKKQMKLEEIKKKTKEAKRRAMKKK
Nature of the data set: EMSA; EMSA buffer and temperature not given in material; protein dialyzed in 10 mM sodium phosphate pH 7.4, 50 mM NaCl, 10 uM ZnCl2. The note with it: protein: recombinant; tags: N-terminal 6xHis (pET14b); label: Cy5 on forward oligo. In general terms: In EMSA bound probe runs differently from free probe, usually more slowly.

B1: SPO13 URS1 probe, unmethylated (Spo13-Cy5-F/Spo13-R) (dsDNA)
DNA 1: TTAATTAGGAGTATATTGAGAAATAGCCGCCGACAAAAAGGAAGTCTCATAAAAGT
DNA 2: ACTTTTATGAGACTTCCTTTTTGTCGGCGGCTATTTCTCAATATACTCCTAATTAA
Take B1: the binding result is “binds”.
